Experimental data taken from article PMC3227653 (2011).

B1: pepsin-treated A5.1m (VHH)
VHH: QVKLEESGGGLVQAGGSLRLSCAASGRTFSMYRMGWFRQAPGKEREFVCVITRNGSSTYYADSVKGRFTCSRDNAKNTVYLQMNSLKPEDTALYYCAATSGSSYLDAAHVYDYWGQGTQVTVSS
B2: pepsin-treated A4.2m (VHH)
VHH: QVKLEESGGGLVQAGGSLRLSCAASGRTFNTLSMGWFRQAPGKEREFVCAVSRSGGSTYYADSVKGRFTCSRDNAKNTVYLQMNSLKPEDTAVYYCAAAATKSNTTAYRLSFDYWGQGTQVTVSS
B3: pepsin-treated A26.8m (VHH)
VHH: QVKLEESGGGLVQAGGSLRLSCAASERTFSRYPVAWFRQAPGAEREFVCVISSTGTSTYYADSVKGRFTCSRDNAKVTVYLQMNNLKREDTAVYFCAVNSQRTRLQDPNEYDYWGQGTQVTVSS

Target: Clostridium difficile toxin A (C. difficile, UniProt P16154 1-2710)
Experiment: SPR

Binder	koff [s⁻¹]
B1	0.013
B2	0.016
B3	0.019
